Reference: patent publication US20230279085A1 (ABL BIO, published 2023)

Assays:
alpha-synuclein monomer = alpha-synuclein monomer (Homo sapiens, UniProt P37840 1-140); assay: SPR (BIAcore), antibody captured on Protein A, sample alpha-Syn monomer, 1:1 binding fit printed under a sensorgram that shows no binding (see non_binding)
Description: The quantitative analysis of the binding of alpha-synuclein antibody prepared in Example 1 to monomer and aggregate antigens was performed using BIAcore analysis.
(§1) The used instrument was T200 (GE Healthcare, S/N: 1565888). Protein A is used as a chip (GE Healthcare, Cat. 29-1275-56). 10 mM Glycine-HCl pH 1.5 (GE Healthcare, Cat. BR-1003-54) was regeneration buffer. The running buffer, analyte dilution, and the sample dilution buffer were HBS-EP. The α-syn antibodies (3A9, 9B11 and 11F11) prepared in Example 1 were diluted with 1×HBS-EP (GE Healthcare, Cat. BR-1006-69), and alpha-synuclein monomer (1 mg/ml) and fibril protein (3 mg/ml) were serially diluted in duplicate and analyzed at 6 concentrations (0, 0.39, 1.56, 6.25, 25, 100 nM) including 0 nM in total. For the capture, the monomer was for RU of 800 (theoretical), and a fibril was for RU of 100 (theoretical). The capture phase was performed at contact time of 60 seconds, a flow rate of 30 μl/min, and a stabilization period of 180 seconds. The association phase was performed at the association time of 120 seconds and the flow rate was 30 μl/min. The dissociation phase was performed at the dissociation time of 360 seconds and the flow rate of 30 μl/min. The regeneration phase was performed twice time at the regeneration time of 240 seconds (primary) and 60 seconds (secondary) and a flow rate of 30 μl/min. […]

[1] = biological target: alpha-synuclein aggregate (fibril) (Homo sapiens, UniProt P37840 1-140); assay: SPR (BIAcore), Protein A capture, file ProteinA-Fibril-main-5th, sample aSyn180330, 1:1 binding fit, 25 °C
Description: as §1, with “μl/min.” for “μl/min. The regeneration phase was performed twice time at the regeneration time of 240 seconds (primary) and 60 seconds (secondary) and a flow rate of 30 μl/min.”
The BIAcore analysis was performed to quantitatively analyze the binding affinity of the chimeric antibodies (Ch11F11) obtained in Example 8, and the humanized antibodies (Hu11F11) obtained in Example 9, according to the substantially same method of Example 2-3. […]

Row | koff (alpha-synuclein monomer) [s⁻¹] | kon (alpha-synuclein monomer) [M⁻¹ s⁻¹] | koff [1] [s⁻¹] | Binder
1 | 2.65e-06 | 2.07e+06 | – | Ch11F11 chimeric antibody (antibody, human IgG1, V domains shown, Chimeric human IgG1; also called chimeric 11F11; Ch11F11(-RD)) VH: EVQLQESGGGLVQPGGSLRLSCATSGFTFSDFYMEWVRQPPGKRLEWIAASRNKANDYTTEYSASVKGRFIVSRDTSQSILYLQMNALRAEDTAIYYCARDAHGKPFAYWGQGTLVTVSA VL: not shown
2 | – | – | 0.000266 | hu11F11(ver.3) (antibody, IgG1, V domains shown, Humanized IgG1; also called Hu11F1_ver3; Hu11F11_v3) VH: EVQLVESGGGLVQPGGSLRLSCATSGFTFSDFYMEWVRQPPGKRLEWIAASRNKANDYTTEYSASVKGRFTISRDTSKSSLYLQMNSLRAEDTAIYYCARDAHGKPFAYWGQGTTVTVSS VL: not shown
